# Results taken from patent publication US20100266532A1, “METHODS FOR INHIBITING SCARRING” (Renovo Limited, priority 2007, published 2010).
# Key:
# [1] = tested on: 1 centimetre experimental wound; assay: Clinical trial, single intradermal injection, lay panel VAS scar scoring (ToScar); assay type: in vivo, human
# Description: FIG. 1 illustrates data from a clinical trial conducted by the inventors to generate a dose response curve indicative of the anti-scarring effect achieved using various different doses of TGF-β3 administered in a single incidence of treatment. Either TGF-β3 or placebo were administered as a single intradermal injection to a 1 centimetre experimental wound. […] To test the treatment effect, ToScar of the TGFβ3 scar was subtracted from the anatomically matched Placebo ToScar on the other arm on each subject. ToScar was calculated as the sum of VAS scores (mm) from week 6 and months 3, 4, 5, 6 and 7. The scars were scored by an independent lay panel at 6 time points after dosing (week 6, months 3-7) using a 100 mm VAS line.
# human wounds = assay: Human study, two incidences of treatment approximately 24 hours apart, lay panel VAS scar scoring and macroscopic images; assay type: in vivo
# Description: In this study, control treatments using TGFβ3 and Placebo were administered in two incidences of treatment (each by intradermal injection), the first prior to wounding and the second approximately 24 hours after wounding. […] To test the effect of control treatment with TGF-β3, ToScar of the TGFβ3 scar was subtracted from the anatomically matched Placebo ToScar on the other arm on each subject. ToScar was calculated as the sum of VAS scores (mm) from week 6 and months 3, 4, 5, 6 and 7. The scars were scored by an independent lay panel at 6 time points after dosing (week 6, months 3-7) using a 100 mm VAS line.
# The macroscopic images are from within subject scars produced on healing of placebo treated and TGFβ3 control treated wounds (dosed twice with 50 ng, 200 ng or 500 ng/100 μl TGFβ3 per cm of wound margin in two incidences of treatment approximately 24 hours apart) in a clinical trial conducted by the inventors. The same amount of TGF-β3 was administered in each incidence of treatment, and the amounts used are shown in the captions (50 ng/100 μl TGFβ3 per cm of wound margin shown top left, with placebo from the same subject top right; 200 ng/100 μl TGFβ3 per cm of wound margin shown middle left, with placebo from the same subject middle right; and 500 ng/100 μl TGFβ3 per cm of wound margin shown bottom left, with placebo from the same subject bottom right).
# TGFβ3 and Placebo were administered by means of intradermal injection in two incidences of treatment, the first prior to wounding and the second approximately 24 hours later. […] The scars were scored by an independent lay panel at 6 time points after dosing (week 6, months 3-7) using a 100 mm VAS line.
# [2] = tested on: scars produced on healing of wounds; assay: Profilometry analysis of silicone moulds from scars, dosed twice approximately 24 hours apart; assay type: in vivo, human
# Excerpt: Note that this is not a method of treatment in accordance with the invention, but (along with FIG. 6) serves to provide comparative data illustrating the surprising effectiveness of a method of treatment in accordance with the invention.
# [3] = dosed twice with 50 ng/100 μl per cm approximately 24 hours apart
# [4] = dosed twice with 200 ng/100 μl per cm approximately 24 hours apart
molecule,measurement,setting,value
"TGF-β3: well-known anti-scarring growth factor, Sequence ID No. 1; labelled ""Juvista"" in FIGS. 8 and 9 (protein, listed as Homo sapiens) ALDTNYCFRNLEENCCVRPLYIDFRQDLGWKWVHEPKGYYANFCSGPCPYLRSADTTHSTVLGLYNTLNPEASASPCCVPQDLEPLTILYYVGRTPKVEQLSNMVVKSCKCS",inhibition of scarring,"[1]; single application of 50 ng, 200 ng or 500 ng/100 μl per cm of wound margin",effectively inhibited
same,"scar improvement (placebo ToScar minus TGFβ3 ToScar, sum of VAS scores), average","[1]; single application, 200 ng/100 μl per cm of wound margin, maximum improvement",> 50 mm
same,drug efficacy at top of dose range,"[1]; single application, 500 ng/100 μl per cm of wound margin, versus 200 ng",reduction in drug efficacy
same,effectiveness relative to other doses,human wounds; 500 ng in each of two incidences of treatment separated by 24 hours,notably more effective than the others
same,effectiveness relative to other doses (mean VAS scores over time),"human wounds; 500 ng per centimetre in each incidence of treatment, approximately 24 hours apart",surprisingly more effective than the other methods of treatment
same,"inhibition of scarring, macroscopic images","human wounds; 500 ng/100 μl per cm twice approximately 24 hours apart (highest dose), versus 50 and 200 ng",greatest inhibition of scarring achieved
same,inhibition of scarring,"human wounds; two applications of 5, 50, 200 and 500 ng/100 μl per cm, prior to and approximately 24 hours post-wounding",effectively inhibited
same,inhibition of scarring (mean VAS scores over time),"human wounds; two applications of 5, 50, 200 or 500 ng/100 μl per cm, prior to wounding and approximately 24 hour post-wounding, week 6 to month 7",scarring is inhibited
same,reduction in scar surface area compared to placebo,[2]; [3],30.21%
same,scar surface area,[2]; [3],12.823 mm^2
same,reduction in scar raised volume compared to placebo,[2]; [4],73.33%
same,reduction in scar surface area compared to placebo,[2]; [4],75.19%
same,scar raised volume,[2]; [4],0.0008 mm^3
same,scar surface area,[2]; [4],3.532 mm^2
same,"inhibition of scarring, 3-dimensional simulations",[2]; dosed twice with 500 ng/100 μl per cm approximately 24 hours apart,Maximal inhibition of scarring
